# Values of other authors, collected in publication PMC12892997.
# Experiments:
# [1] = biological target: SARS-CoV-2 spike protein (Severe acute respiratory syndrome coronavirus 2) (UniProt P0DTC2)
# [2] = biological target: SARS-CoV-2 spike protein RBD (Severe acute respiratory syndrome coronavirus 2) (UniProt P0DTC2)
# GRP78, sequence (P11021 19-654): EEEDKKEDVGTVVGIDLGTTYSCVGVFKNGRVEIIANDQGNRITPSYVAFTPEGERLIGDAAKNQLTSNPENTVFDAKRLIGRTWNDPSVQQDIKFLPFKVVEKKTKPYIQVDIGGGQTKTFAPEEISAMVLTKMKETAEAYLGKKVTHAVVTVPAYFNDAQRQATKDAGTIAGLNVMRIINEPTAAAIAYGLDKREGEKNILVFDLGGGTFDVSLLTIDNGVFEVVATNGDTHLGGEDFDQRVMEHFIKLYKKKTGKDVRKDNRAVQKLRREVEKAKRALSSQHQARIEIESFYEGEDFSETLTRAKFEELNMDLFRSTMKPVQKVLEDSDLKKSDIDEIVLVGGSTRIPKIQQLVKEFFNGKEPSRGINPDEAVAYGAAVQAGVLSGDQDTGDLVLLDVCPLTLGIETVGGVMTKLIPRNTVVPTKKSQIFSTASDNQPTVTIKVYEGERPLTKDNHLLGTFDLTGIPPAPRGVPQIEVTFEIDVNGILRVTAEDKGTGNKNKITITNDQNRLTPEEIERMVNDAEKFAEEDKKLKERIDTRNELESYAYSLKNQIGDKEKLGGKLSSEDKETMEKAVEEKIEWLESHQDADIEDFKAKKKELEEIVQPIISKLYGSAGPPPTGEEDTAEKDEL
Substance,Kd [1] [nM],Kd [2] [nM]
GRP78 (from UniProt P11021),55.2,–
CD4 N-terminal domain (from UniProt P01730),–,24.5
